Test results: US20060140968A1 (GREEN PEPTIDE, published 2006)

What was measured:
HLA-A2402 = biological target: T1, HLA-A2402 (human, UniProt P04439-2 25-302 at identity 0.92)); assay: cell-based or functional assay
T1 MHC heavy: not shown

HLA-A0201 = biological target: T2, HLA-A0201 (human, UniProt P04439 25-302 at identity 0.94)); assay: cell-based or functional assay
T2 MHC heavy: not shown

Row | Binder | IFN-γ in the supernatant (pg/ml) produced by KE-4CTL on HLA-A2402-transfected VA-13 cells pulsed with 10 µM peptide (no peptide: 677) (HLA-A2402) [pg/mL] | IFN-γ in the supernatant (pg/ml) produced by OK-CTL on HLA-A0201-positive T2 cells pulsed with 10 µM peptide, value with no peptide subtracted (HLA-A0201) [pg/mL]
1 | LFEKAVKDYI [SART-3 peptide "172-181" Leu-Phe-Glu-Lys-Ala-Val-Lys-Asp-Tyr-Ile] | 830 | 
2 | LLQAEAPRL [SART-3 peptide "302-310"] |  | 190
3 | WLHDEISMA [SART-3 peptide "152-160"] |  | 162
4 | VYDYNCHVDL [SART-3 peptide "109-118" Val-Tyr-Asp-Tyr-Asn-Cys-His-Val-Asp-Leu] | 928 | 
5 | NYNKALQQL [SART-3 peptide "284-292" Asn-Tyr-Asn-Lys-Ala-Leu-Gln-Gln-Leu] | 794 | 
6 | SLFRRQLAI [SART-3 peptide "249-257"] |  | 209

Further lines, results first:

Row | IFN-γ in the supernatant (pg/ml) produced by KE-4CTL on HLA-A2402-transfected VA-13 cells pulsed with 10 µM peptide (no peptide: 677) (HLA-A2402) [pg/mL] | IFN-γ in the supernatant (pg/ml) produced by OK-CTL on HLA-A0201-positive T2 cells pulsed with 10 µM peptide, value with no peptide subtracted (HLA-A0201) [pg/mL] | Binder
7 | 880 |  | AYIDFEMKI [SART-3 peptide "315-323" Ala-Tyr-Ile-Asp-Phe-Glu-Met-Lys-Ile]
8 | 754 |  | AFTRALEYL [SART-3 peptide "448-456" Ala-Phe-Thr-Arg-Ala-Leu-Glu-Tyr-Leu]
9 | 833 |  | DYLRRRVDF [SART-3 peptide "426-434" Asp-Tyr-Leu-Arg-Arg-Arg-Val-Asp-Phe]
10 |  | 231 | RLAEYQAYI [SART-3 peptide "309-317"]
11 | 731 |  | DYVEIWQAYL [SART-3 peptide "416-425"]
12 |  | 122 | LLAMERHGV [SART-3 peptide "386-394"]
